Data reported in US20070134693A1 (published 2007).

Biological target: T1, M-tropic HIV-1MN envelope glycoprotein gp120 (HIV-1 MN, UniProt P05877 32-513)
T1 construct: also called HIV-1 gp120; HIV-MN gp120
Test: fluorescent bead adhesion assay on K562-DC-SIGN cells

B1: DC-SIGN (receptor)
chain: MSDSKEPRLQQLGLLEEEQLRGLGFRQTRGYKSLAGCLGHGPLVLQLLSFTLLAGLLVQVSKVPSSISQEQSRQDAIYQNLTQLKAAVGELSEKSKLQEIYQELTQLKAAVGELPEKSKLQEIYQELTRLKAAVGELPEKSKLQEIYQELTWLKAAVGELPEKSKMQEIYQELTRLKAAVGELPEKSKQQEIYQELTRLKAAVGELPEKSKQQEIYQELTRLKAAVGELPEKSKQQEIYQELTQLKAAVERLCHPCPWEWTFFQGNCYFMSNSQRNWHDSITACKEVGAQLVVIKSAEEQNFLQLQSSRSNRFTWMGLSDLNQEGTWQWVDGSPLLPSFKQYWNRGEPNNVGEEDCAEFSGNGWNDDKCNLAKFWICKKSAASCSRDEEQFLSPAPATPNPPPA
notes: whole, on cells; also called K562-DC-SIGN; THP-1-DC-SIGN
B1: binds.
